Test results from patent publication EP4714976A1.

Columns and labels:
[1] = molecular target: recombinant mouse FGFR2b (mouse) (UniProt P21803); test: ELISA, antibody 1ug/mL
[2] = molecular target: recombinant mouse FGFR2b (mouse) (UniProt P21803); test: BLI, antibody on AHC2 sensor
FGFR1 (acro) = FGFR1 (acro) (UniProt P11362); test: ELISA, antibody 10 µg/mL
FGFR2c (acro) = FGFR2c (acro) (UniProt P21802); test: ELISA, antibody 10 µg/mL
FGFR4 (acro) = molecular target: T1, FGFR4 (acro) (UniProt P22455); test: ELISA, antibody 10 µg/mL
T1 sequence (looked up): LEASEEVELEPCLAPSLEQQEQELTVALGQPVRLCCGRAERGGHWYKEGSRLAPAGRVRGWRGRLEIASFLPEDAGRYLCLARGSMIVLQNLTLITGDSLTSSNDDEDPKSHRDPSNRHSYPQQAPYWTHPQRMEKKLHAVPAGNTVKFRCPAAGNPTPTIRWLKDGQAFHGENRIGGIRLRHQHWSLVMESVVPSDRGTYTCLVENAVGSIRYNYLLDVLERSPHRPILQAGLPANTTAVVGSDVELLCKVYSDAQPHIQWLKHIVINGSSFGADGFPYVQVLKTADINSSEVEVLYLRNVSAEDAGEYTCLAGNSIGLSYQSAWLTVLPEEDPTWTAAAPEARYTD

[3] = molecular target: extracellular domain of the FGFR2b protein (NP_075259.4) (UniProt P21802); test: phage ELISA
[4] = molecular target: extracellular domain of FGFR2c protein (Example 1) (UniProt P21802); test: phage ELISA
Sequence of extracellular domain of FGFR2c protein (Example 1) (P21802 22-377): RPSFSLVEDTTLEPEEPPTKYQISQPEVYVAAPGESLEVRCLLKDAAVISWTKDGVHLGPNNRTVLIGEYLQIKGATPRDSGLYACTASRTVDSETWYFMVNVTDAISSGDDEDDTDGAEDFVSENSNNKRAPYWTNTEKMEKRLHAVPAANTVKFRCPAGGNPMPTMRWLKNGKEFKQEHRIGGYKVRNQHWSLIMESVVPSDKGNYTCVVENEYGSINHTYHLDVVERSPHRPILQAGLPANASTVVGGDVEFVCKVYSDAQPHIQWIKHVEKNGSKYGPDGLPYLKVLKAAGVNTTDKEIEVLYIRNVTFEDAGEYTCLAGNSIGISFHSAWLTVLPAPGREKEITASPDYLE

Sequence of recombinant mouse FGFR2b (mouse) (P21803 22-377): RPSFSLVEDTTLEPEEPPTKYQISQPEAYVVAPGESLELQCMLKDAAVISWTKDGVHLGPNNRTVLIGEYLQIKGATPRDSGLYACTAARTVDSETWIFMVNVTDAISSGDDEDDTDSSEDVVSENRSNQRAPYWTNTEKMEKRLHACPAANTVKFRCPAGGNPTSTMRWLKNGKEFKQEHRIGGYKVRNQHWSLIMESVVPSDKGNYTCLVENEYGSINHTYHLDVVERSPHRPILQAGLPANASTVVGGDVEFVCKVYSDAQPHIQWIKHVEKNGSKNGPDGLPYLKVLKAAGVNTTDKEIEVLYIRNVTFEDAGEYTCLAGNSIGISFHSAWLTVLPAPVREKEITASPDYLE
Sequence of FGFR1 (acro) (P11362 22-376): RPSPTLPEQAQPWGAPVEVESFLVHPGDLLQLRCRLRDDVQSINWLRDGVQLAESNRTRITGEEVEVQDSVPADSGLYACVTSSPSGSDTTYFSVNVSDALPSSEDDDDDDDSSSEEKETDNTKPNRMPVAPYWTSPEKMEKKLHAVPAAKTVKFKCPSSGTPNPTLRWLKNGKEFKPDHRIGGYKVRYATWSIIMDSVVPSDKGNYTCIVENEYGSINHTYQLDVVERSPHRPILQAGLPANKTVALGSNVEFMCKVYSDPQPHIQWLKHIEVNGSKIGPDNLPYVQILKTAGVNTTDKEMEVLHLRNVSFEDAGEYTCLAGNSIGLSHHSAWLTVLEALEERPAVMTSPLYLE
Sequence of extracellular domain of the FGFR2b protein (NP_075259.4) (P21802 other isoform, or with tags, fused parts or gaps): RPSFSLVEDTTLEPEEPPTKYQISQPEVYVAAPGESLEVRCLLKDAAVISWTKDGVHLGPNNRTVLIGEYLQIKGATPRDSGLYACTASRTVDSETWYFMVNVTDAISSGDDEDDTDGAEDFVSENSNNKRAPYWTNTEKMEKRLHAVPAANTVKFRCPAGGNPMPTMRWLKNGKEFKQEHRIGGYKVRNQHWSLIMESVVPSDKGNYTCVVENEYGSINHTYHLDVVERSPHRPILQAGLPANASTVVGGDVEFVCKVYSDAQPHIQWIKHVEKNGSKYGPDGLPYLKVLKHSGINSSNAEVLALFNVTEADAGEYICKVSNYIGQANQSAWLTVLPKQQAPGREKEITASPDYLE
Sequence of FGFR2c (acro) (P21802 22-377): as the sequence (P21802 22-377) above

B1: 1A3 scFv-Fc (Fc fusion)
chain: QVQLQQPGAELVKPGASVKMSCKASGYTFASYNLHWVKQTPGQGLEWIGLIYPENGDTSYNQKFKGKATLTADKSSSTAYIQLSSLTSEDSAVYFCARGGFDYWGQGTTLTVSQGGGGSGGGGSGGGGSDIQMTQSPASLSASVGETVTITCGASENIYGALNWYQRKQGKSPQLLIYGATNLADGMSSRFSGSGSGRQYSLKISSLHPDDVATYYCQNVLSTPYTFGGGTKLEIKESKYGPPCPPCPAPEAAGGPSVFLFPPKPKDTLMISRTPEVTCVVVDVSQEDPEVQFNWYVDGVEVHNAKTKPREEQFNSTYRVVSVLTVLHQDWLNGKEYKCKVSNKGLPSSIEKTISKAKGQPREPQVYTLPPSQEEMTKNQVSLTCLVKGFYPSDIAVEWESNGQPENNYKTTPPVLDSDGSFFLYSKLTVDKSRWQEGNVFSCSVMHEALHNHYTQKSLSLSLG
OD (450 nm) value [1]: 1.81 | Kd [2]: 0.0998 µM | koff [2]: 0.0054 s⁻¹ | kon [2]: 54200 M⁻¹ s⁻¹ | OD (450 nm) value (FGFR1 (acro)): 0.143 | OD (450 nm) value (FGFR2c (acro)): 0.134

B2: 3E3 scFv-Fc (Fc fusion)
chain: QVQLQQPGAVLVKPGASVRMSCKASGYTFPYYNVHWVKRTPGQGLEWIGLIYPDNGDTSYNQKFTGKATLTADTSSSTAYMQLSSLTSEDSAVYYCARGGLDYWGQGTTLTVSAGGGGSGGGGSGGGGSDVQITQSPASLSASVGETVTITCGASENIYGALNWYQRKQGKSPQLLIYGATNLADGMSSRFSGSGSGRQYSLKISSLHPDDVATYYCQNVLSTPYTFGGGTKLEIKESKYGPPCPPCPAPEAAGGPSVFLFPPKPKDTLMISRTPEVTCVVVDVSQEDPEVQFNWYVDGVEVHNAKTKPREEQFNSTYRVVSVLTVLHQDWLNGKEYKCKVSNKGLPSSIEKTISKAKGQPREPQVYTLPPSQEEMTKNQVSLTCLVKGFYPSDIAVEWESNGQPENNYKTTPPVLDSDGSFFLYSKLTVDKSRWQEGNVFSCSVMHEALHNHYTQKSLSLSLG
OD (450 nm) value [1]: 3.06 | Kd [2]: 0.0527 µM | koff [2]: 0.00214 s⁻¹ | kon [2]: 40500 M⁻¹ s⁻¹ | OD (450 nm) value (FGFR4 (acro)): 0.265 | OD (450 nm) value (FGFR1 (acro)): 0.19 | OD (450 nm) value (FGFR2c (acro)): 0.199

B3: 1G6 scFv-Fc (Fc fusion)
chain: EIQLQQSGAELVKPGASVKMSCKASGYTFRYYNMHWVKRTPGQGLEWIGLIYPDNGDTSYNQKFKGKATLTADTSSSTAYMQLSSLTSEDSAVYYCARGGLDYWGQGTSLTVSSGGGGSGGGGSGGGGSNIVMTQSHKFMSTSVGDRVSITCKASQDVNTDVAWYQQKPGQSPKLLIYSASYRYTGVPTRFTGSGSGTDFTFTISGVQAEDLADYYCQQHYNTPYTFGGGTKLELKESKYGPPCPPCPAPEAAGGPSVFLFPPKPKDTLMISRTPEVTCVVVDVSQEDPEVQFNWYVDGVEVHNAKTKPREEQFNSTYRVVSVLTVLHQDWLNGKEYKCKVSNKGLPSSIEKTISKAKGQPREPQVYTLPPSQEEMTKNQVSLTCLVKGFYPSDIAVEWESNGQPENNYKTTPPVLDSDGSFFLYSKLTVDKSRWQEGNVFSCSVMHEALHNHYTQKSLSLSLG
OD (450 nm) value [1]: 2.76 | Kd [2]: 0.0422 µM | koff [2]: 0.00128 s⁻¹ | kon [2]: 30400 M⁻¹ s⁻¹ | OD (450 nm) value (FGFR4 (acro)): 0.232 | OD (450 nm) value (FGFR1 (acro)): 0.217 | OD (450 nm) value (FGFR2c (acro)): 0.176

B4: 3G10 scFv-Fc (Fc fusion)
chain: EVQLQQSGPELVKPGASVKMSCKASGYTFATYNMHWVKQTTGQGLEWIGAIYPDNGDTFYNRKFKDKATLTADKSSTTAYMQLSSLTSEDSAVYYCARGDFAYWGQGTLVTVSAGGGGSGGGGSGGGGSDVLMTQSPASLSASVGETVTITCGASENIYGALNWYQRKQGKSPQLLIYGATNLADGMSSRFSGSGSGRQYSLKISSLHPDDVATYYCQNVLSTPYTFGGGTKLEMKESKYGPPCPPCPAPEAAGGPSVFLFPPKPKDTLMISRTPEVTCVVVDVSQEDPEVQFNWYVDGVEVHNAKTKPREEQFNSTYRVVSVLTVLHQDWLNGKEYKCKVSNKGLPSSIEKTISKAKGQPREPQVYTLPPSQEEMTKNQVSLTCLVKGFYPSDIAVEWESNGQPENNYKTTPPVLDSDGSFFLYSKLTVDKSRWQEGNVFSCSVMHEALHNHYTQKSLSLSLG
OD (450 nm) value [1]: 3 | Kd [2]: 0.0419 µM | koff [2]: 0.00195 s⁻¹ | kon [2]: 46600 M⁻¹ s⁻¹ | OD (450 nm) value (FGFR4 (acro)): 0.175 | OD (450 nm) value (FGFR1 (acro)): 0.083

B5: 3H9 scFv displayed on phage (scFv)
scFv: EIQLQQSGAELVKPGASVKMSCKASGYTFSFYNMHWVKRTPGQGLEWIGLIYPDNGDTSYNQKFKGKATLTADTSSSTAYMQLSSLTSEDSAVYYCARGGLDYWGQGTTLTVSSGGGGSGGGGSGGGGSDIVLTQSPASLSVSVGETVTITCRASENIYSNLAWYQQKQGKSPQLLVYAATNLADGVPSRFSGSGSGTQYSLKINSLQSEDFGSYYCQHFWGTPYTFGGGTKLELK
OD (450 nm) value [3]: 2.22 | OD (450 nm) value [4]: 0.073

B6: 3D7 scFv-Fc (Fc fusion)
chain: QVQLQQSGAELVKPGASVKMSCKASGYTFSFYNMHWVKRTPGRGLEWIGLIYPDNGDTSYNQKFKGKATLTADTSSSTAYMQLSSLTSEDSAVYYCARGGLDYWGQGTSLTVSSGGGGSGGGGSGGGGSEIVLTQSPASLAVSLGQRATISCKASQSVDYDGDSYMNWYQQKPGQPPKLLIYGISNRFSGVPDRFSGSGSGTDFTLKISTIKPEDLGMYYCLQGTHQPYTFGGGTKLEIKESKYGPPCPPCPAPEAAGGPSVFLFPPKPKDTLMISRTPEVTCVVVDVSQEDPEVQFNWYVDGVEVHNAKTKPREEQFNSTYRVVSVLTVLHQDWLNGKEYKCKVSNKGLPSSIEKTISKAKGQPREPQVYTLPPSQEEMTKNQVSLTCLVKGFYPSDIAVEWESNGQPENNYKTTPPVLDSDGSFFLYSKLTVDKSRWQEGNVFSCSVMHEALHNHYTQKSLSLSLG
OD (450 nm) value [1]: 2.48 | Kd [2]: 0.0817 µM | koff [2]: 0.00238 s⁻¹ | kon [2]: 29100 M⁻¹ s⁻¹ | OD (450 nm) value (FGFR4 (acro)): 0.256 | OD (450 nm) value (FGFR1 (acro)): 0.192

B7: 3A12 scFv displayed on phage (scFv)
scFv: EVQLQQSGAELVKPGASVKMSCKASGYTFSFYNVHWVRQTPGQGLEWIGLIYPDNGDTSYNQKFKAKATLTADKSSSAAYMQLSSLTSEDSAVYYCARGGFDYWGQGTSLTVSSGGGGSGGGGSGGGGSDIVMTQSHKFMSTSVGDRVNITCKASQDVSTAVAWYQQKPGQSPKLLIYSASYRYSGVPDRFTGSGSGTDFTFTISSVQAEDLAVYYCQQHYSTPYTFGGGTKLEMK
OD (450 nm) value [3]: 2.41 | OD (450 nm) value [4]: 0.1

B8: 1C10 scFv displayed on phage (scFv)
scFv: QVQLQQSGAELVKPGASVKMSCKASGYTFRYYNMHWVKRTPGQGLEWIGLIYPDNGDTSYNQKFKGKATLTADTSSSTAYMQLSSLTSEDSAVYYCARGGLDYWGQGTSLTVSSGGGGSGGGGSGGGGSDIVMTQSPASLSASVGETVTITCRASGNIHNYLAWYQQKQGKSPQLLVYNAKTLADGVPSRFSGSGSGTQYSLKINSLQPEDFGSYYCQHFWSTPYTFGGGTKLEMK
OD (450 nm) value [3]: 2.55 | OD (450 nm) value [4]: 0.068
